“Also recorded” adds a separate entry of the source.
B1: soluble EphB4: soluble EphB4 extracellular domain protein; exact construct not stated at the results (protein)
chain: LEETLLNTKLETADLKWVTFPQVDGQWEELSGLDEEQHSVRTYEVCDVQRAPGQAHWLRTGWVPRRGAVHVYATLRFTMLECLSLPRAGRSCKETFTVFYYESDADTATALTPAWMENPYIKVDTVAAEHLTRKRPGAEATGKVNVKTLRLGPLSKAGFYLAFQDQGACMALLSLHLFYKKCAQLTVNLTRFPETVPRELVVPVAGSCVVDAVPAPGPSPSLYCREDGQWAEQPVTGCSCAPGFEAAEGNTKCRACAQGTFKPLSGEGSCQPCPANSHSNTIGSAVCQCRVGYFRARTDPRGAPCTTPPSAPRSVVSRLNGSSLHLEWSAPLESGGREDLTYALRCRECRPGGSCAPCGGDLTFDPGPRDLVEPWVVVRGLRPDFTYTFEVTALNGVSSLATGPVPFEPVNVTTDREVPPAVSDIRVTRSSPSSLSLAWAVPRAPSGAVLDYEVKYHEKGAEGPSSVRFLKTSENRAELRGLKRGASYLVQVRARSEAGYGPFGQEHHSQTQLDESEGWREQLA
B2: B4ECv3: soluble extracellular domain derivative of human EphB4, SEQ ID NO:1 (protein)
chain: MELRVLLCWASLAAALEETLLNTKLETADLKWVTFPQVDGQWEELSGLDEEQHSVRTYEVCEVQRAPGQAHWLRTGWVPRRGAVHVYATLRFTMLECLSLPRAGRSCKETFTVFYYESDADTATALTPAWMENPYIKVDTVAAEHLTRKRPGAEATGKVNVKTLRLGPLSKAGFYLAFQDQGACMALLSLHLFYKKCAQLTVNLTRFPETVPRELVVPVAGSCVVDAVPAPGPSPSLYCREDGQWAEQPVTGCSCAPGFEAAEGNTKCRACAQGTFKPLSGEGSCQPCPANSHSNTIGSAVCQCRVGYFRARTDPRGAPCTTPPSAPRSVVSRLNGSSLHLEWSAPLESGGREDLTYALRCRECRPGGSCAPCGGDLTFDPGPRDLVEPWVVVRGLRPDFTYTFEVTALNGVSSLATGPVPFEPVNVTTDREVPPAVSDIRVTRSSPSSLSLAWAVPRAPSGAWLDYEVKYHEKGAEGPSSVRFLKTSENRAELRGLKRGASYLVQVRARSEAGYGPFGQEHHSQTQLDESEGWREQGSKRAILQIEGKPIPNPLLGLDSTRTGHHHHHH
modifications: Recombinant B4ECv3 protein

Tests used:
HUVECS = assay: MTS cytotoxicity assay; format: cell-based, human
[1] = system: bFGF-induced corneal neovascularization; assay: Mouse corneal micropocket assay; format: in vivo; conditions: mouse cornea, day 7 of implantation
From the text: To further investigate the antiangiogenic activity of soluble EphB4 in vivo, we studied the inhibitory effect of administration of soluble EphB4 on neovascularization in the mouse cornea induced by bFGF. Hydron Pellets implanted into corneal micropocket could induce angiogenesis, in the presence of growth factors, in a typically avascular area. The angiogenesis response in mice cornea was moderate, the appearance of vascular buds was delayed and the new capillaries were sparse and grew slowly.
Mouse corneal micropocket assay was performed according to that detailed by Kenyon et al., 1996. Briefly, hydron pellets (polyhydroxyethylmethacrylate [polyHEMA], Interferon Sciences, New Brunswick, N.J., U.S.A.) containing either 90 ng of bFGF (R&D) or 180 ng of VEGF (R&D Systems, Minneapolis, Minn., U.S.A.) and 40 μg of sucrose aluminium sulfate (Sigma) were prepared. Using an operating microscope, a stromal linear keratotomy was made with a surgical blade (Bard-Parker no. 15) parallel to the insertion of the lateral rectus muscle in an anesthetized animal. An intrastromal micropocket was dissected using a modified von Graefe knife (2^••30 mm). […] The difference in pellet location for each growth factor was determined to be necessary given the relatively weaker angiogenic stimulation of VEGF in this model. […]

SCC15 tumors [2] = assay: SCC15 tumor growth and histology in nude mice, soluble EphB4; format: in vivo, mouse; conditions: for SCC15 tumor growth: Balb/C nu/nu mice
Experimental: The same model was used to determine the effects of soluble EphB4 in vivo. SCC15 tumors implanted subcutaneously, pre-incubated with matrigel and with or w/o growth factors, as well as implanted sc alone, and mice treated sc or ip daily with 1-5 μg of soluble EphB4 were carried out.
Subcutaneously inject logarithmically growing SCC15, head and neck squamous cell carcinoma cell line, at 5×10^6 cell density; with or without EphB4 ECD in the presence or absence of human bFGF, into athymic Balb/c nude mice, along with Matrigel (BD Bioscience) synthetic basement membrane (1:1 v/v), and examine tumors within 2 weeks. […] There was no difference in body weight between the groups. Immunohistochemical examination of cross-sections of resected tumors and TUNEL-positive apoptosis or necrosis, CD34 immunostaining, and BrdU proliferation rate will be performed, after deparaffinized, rehydrated, and quenched for endogenous peroxidase activity, and after 10 min permeabilization with proteinase K. Quantitative assessment of vascular densities will also be performed. Local intratumoral delivery or IV delivery of EphB4 ECD will also be performed twice a week.
30 athymic nude mice, BALB/c (nu/nu), were each injected with 1×10^6 B16 melanoma cells with 0.1 ml PBS mixed with 0.1 ml matrigel or 1.5×10^6 SCC15 cells resuspended in 200 μl of DMEM serum-free medium and injected subcutaneously on day 0 on the right shoulder region of mice. Proteins were injected intravenously or subcutaneously, around the tumor beginning on day 1 at a loading dose of 4 μg/mg, with weekly injections of 2 ug/mg. (10 μg/g, 50 μg/kg/day), and at 2 weeks post-inoculation. Mice are sacrificed on Day 14. Control mice received PBS 50 μl each day.
All animals were treated under protocols approved by the institutional animal care committees. Cancer cells (5×10^6) were subcutaneously inoculated into the dorsal skin of nude mice. When the tumor had grown to a size of about 100 mm^3 (usually it took 1[…]2 days), sEphB4 was either intraperitoneally or subcutaneously injected once/day, and tumorigenesis was monitored for 2 weeks. Tumor volume was calculated according to the formula a^2xb, where a and b are the smallest and largest diameters, respectively. A Student's t test was used to compare tumor volumes, with P<0.05 being considered significant.
Tumors were fixed in 4% formaldehyde, embedded in paraffin, sectioned by 5 μm, and stained with hematoxylin[…]eosin. Vessel density was semi-quantitated using a computer-based image analyzer (five fields per section from three mice in each group).

SCC15 tumors [3] = assay: as above; format: in vivo, mouse; conditions: treated vs control tumors, CD31
EphB4 receptor = EphB4 receptor phosphorylation in HUVECs (Western blot); format: cell-based, human; conditions: serum-starved HUVECs, in the presence of EphrinB2Fc
From the text: We examined EphB4 receptor phosphorylation in HUVECs by performing Western blot analyses with lysates from soluble EphB4-treated cells and antibodies against phosphor-tyrosine. […] Ephrin B2Fc without the soluble EphB4 protein induced phosphorylation of EphB4 receptor (FIG. 22).

KS-SLK cells = assay: KS-SLK cord formation on Matrigel; format: cell-based, human
Experimental: Cord formation assay of HUVEC in Matrigel™ (upper row). Cells in exponential growth phase were treated overnight with the indicated concentrations of EphB4 extracellular domain (ECD) prior to plating on Matrigel™. Cells were trypsinized and plated (1×10^5 cells/well) in a 24-well plate containing 0.5 ml Matrigel™. Shown are representative 20× phase contrast fields of cord formation after 8 hr plating on Matrigel™ in the continued presence of the test compounds as shown. Original magnification 200×. KS-SLK cells treated in a similar manner (middle row) in a cord formation assay on Matrigel™. […] After 7 days the plugs were removed, sectioned and stained with H&E to visualize cells migrating into the matrix.

HNSCC-15 cells = assay: Cell cycle FACS of HNSCC cells with soluble EphB4ECD; format: cell-based, human

Molecule	cytotoxic effect (HUVECS)	corneal neovascularization induced by bFGF [1]	SCC15 tumor growth (SCC15 tumors [2])	tumor angiogenesis (SCC15 tumors [2]; SCC15, premixed with Matrigel plus growth factors, 10 to 14 days, FITC-lectin)	Tumor volumes versus vehicle groups (SCC15 tumors [2]; co-injected with Matrigel, presence and absence of growth factor, within 2 weeks)	Fibrin deposition in and around blood vessels (SCC15 tumors [2]; inner viable rim and central necrotic core, Masson's Trichrome)	effects on the endothelium in normal tissues (SCC15 tumors [2]; lungs, liver and kidneys)	Necrosis, percentage of tumor section area (SCC15 tumors [2]; treated vs control, p<0.02)	body weight (SCC15 tumors [2]; tumor-bearing mice)	tolerability in vivo (SCC15 tumors [2]; tumor-bearing mice, general well-being)	body weight (SCC15 tumors [2]; tumor-bearing mice, listed as EphB4 ECD)	Microvessel density in the outer viable rim of tumor cells (SCC15 tumors [3])	level of phosphorylated EphB4 (EphB4 receptor)	cord formation (KS-SLK cells)	cell cycle distribution (HNSCC-15 cells)
B1	no detectable cytotoxic effect	markedly inhibited	inhibits; also recorded: reduced growth rate	marked inhibition	three-fold smaller	increased	no such effects	more extensive	no significant effect	well tolerated	no difference	similar	rapid and transient decrease	inhibits	accumulation in subG0/G1 and S/G2 phases
B2	–	inhibits	inhibits	–	–	–	–	–	–	–	–	–	–	–	–

— patent publication US9533026B2, “Polypeptide compounds for inhibiting angiogenesis and tumor growth” (VasGene Therapeutics, Inc., priority 2004, dated 2017)
